In the supplement of paper PMC10567573:

B1: LOC100129726 (parent)
chain: VHTGCHKKLGPEARRPRTRWGKN
B2: WEE1 (parent)
chain: FISRTSIPNAASEEGDEDDWASNK

Variants of: B1
Experiment: protein stability index of a GFP-peptide fusion (GPS, HEK-293T) (PSI 1-6); higher = more stable
Settings: c terminus: native
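Also: lentivirally expressed fusions sorted by FACS into six bins by GFP to DsRed ratio, PSI derived from sequencing read proportions per bin multiplied by bin number.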

Protein stability index: each site, then its substitutions
T18: N 1.74 | I 1.4 | S 2.69 | F 2.03 | V 1.29 | A 2.96 | C 1.63 | Y 2.37 | L 3.05 | M 2 | E 3.94 | D 3.96 | Q 2.47 | H 1.7 | G 3.94
E12: R 3.79 | Y 2.69 | M 1.47 | T 1.42 | Q 1.75 | C 3.61 | F 1.23 | K 1.01 | V 1.23 | L 2.17 | D 2.56 | H 2.21
P16: G 3.15 | C 1.24 | Q 1.03 | S 1.46 | K 3.74 | N 3.05 | H 1.39 | E 1.8
W20: V 3.67 | H 2.02 | L 4.36 | I 3.89 | Q 3.66 | F 2.87 | T 4.15 | R 4.73 | A 3.77 | M 3.15 | K 5 | S 4.58 | G 1.33 | P 2.01 | N 4.45 | Y 2.26 | C 2.99
P11: K 2.05 | D 2.18 | Y 2.17 | M 2.37 | W 1.46 | A 2.24 | V 2.25 | S 1.53 | R 1.01 | F 2.47 | T 2.67
N23: Q 1.63 | L 1.42 | W 2.27 | S 1.74 | D 2.78 | F 2.03 | C 1.61 | P 2.62 | I 1.3 | T 2.35
R17: Y 2.15 | C 1.93 | S 2.7 | I 1.98 | F 2.48 | A 2.5 | L 1.7 | G 2.75 | E 2.26 | P 4.37 | T 2.59 | W 1.66 | N 3.66 | K 1.36 | Q 1.01 | D 4.38
R19: H 2.59 | K 1.49 | F 2.3 | W 2.67 | D 5.13 | Y 1.92 | M 2.41 | L 3.09 | E 3.77 | N 2.5
G21: P 4.47 | Q 4.45 | K 4.43 | L 3.56 | V 2.78 | C 3.16 | N 4.39 | F 3.36 | D 4 | I 2.85 | T 3.57 | W 2.69 | A 3.47 | E 4.54 | M 3.89 | H 4.34
A13: K 1.11 | F 2.49 | N 1.94 | R 1.64 | E 2.55 | S 2.71 | W 2.94
K22: T 2.93 | P 3.43 | I 4.11
R15: P 2.75 | L 1.7 | C 1.41 | Y 2.06 | Q 1.75 | H 2.44 | E 2.63 | G 3.43 | I 1.27 | V 1.34 | N 2.42 | F 3.27
G10: R 2.37 | Y 1.29 | T 2.48 | W 2.17 | V 1.39
R14: V 3.24 | F 2.72 | W 1.54 | Y 3 | A 3.44 | K 2.05 | E 3.01 | I 3.23 | H 2.71 | G 4.21 | P 4.64 | C 2.81 | M 3.01

Variants of: B2
Experiment: as above
Settings: c terminus: a fixed tail appended

Protein stability index of substitutions, site by site:
K24: P 4.54 | D 4.73 | M 3.82 | V 3.58 | G 4.01 | C 4.15 | Q 4.46 | F 4.04 | N 4.23 | T 4.12 | H 3.91 | S 4.53 | E 4.69
S12: R 4.37 | L 4.03 | V 3.91 | D 4.26 | A 3.64
D19: I 2.67 | K 3.77 | L 2.48 | N 3.72 | H 3.61 | S 3.78 | W 2.37
S22: N 4.11 | H 3.92 | R 3.99 | A 4.15 | F 3.96 | Y 4.08
G15: H 3.91 | Q 3.78 | R 3.26 | S 4.42 | L 3.74 | W 3.27 | A 4.17
D16: I 4 | G 3.76 | F 3.63 | R 4.17 | M 3.61 | N 3.8 | C 3.74
T5: Y 2.19 | A 4.19 | P 4 | N 4.28 | M 3.3 | G 3.53 | R 3.77 | D 4.2 | C 3.58
P8: K 4.12 | D 4.68 | F 3.19 | L 2.92
R4: P 3.68 | G 4.62 | C 4.37 | V 4.39 | I 3.85 | T 4.94 | K 3.86 | H 4.15 | Q 4.6 | E 5.35 | W 3.67 | M 4.25 | D 4.92
N23: F 3.94 | Q 3.82 | K 3.93 | C 3.73 | V 2.71 | R 4.21
D18: L 3.16 | I 3.53 | K 3.76 | M 3.03 | F 2.5 | A 3.62 | P 3.6 | N 3.27 | W 2.54 | H 2.23
A10: T 3.89 | Q 4.16 | I 3.56 | G 4.13 | F 3.24 | D 3.15 | N 3.86 | W 2.15
S6: H 3.48 | R 3.22 | W 3.48 | K 4.27
F1: A 5.37 | Y 4.39 | K 5.42 | W 4.88 | V 5.41 | G 5.71 | E 5.46 | H 5.37
W20: Y 4.23 | C 4.75 | F 4.81 | R 4.46 | P 4.57 | L 4.23 | S 4.93 | Q 4.7
E13: N 3.51 | C 3.62 | W 3.54 | S 3.9 | T 3.55 | L 3.5 | A 3.85 | M 3.64 | Q 3.81
N9: G 4.38 | C 3.44 | D 4.34 | E 4.64
I7: S 4.36 | W 2.82 | Y 2.72 | P 4.79 | L 4.11 | G 4.84
S3: I 3.21 | K 4.56 | R 4.02 | N 4.62 | M 4 | W 2.85 | F 3.57 | Y 3.37
A11: C 3.47 | V 3.92 | G 4.23 | S 4.23 | I 3.48 | F 3.47
E17: F 3.01 | V 3.35 | C 3.43 | L 3.11 | Y 3.59 | G 3.75 | I 3.8 | S 3.72
E14: S 3.66 | R 3.39 | D 3.88 | C 4.11 | M 3.79 | I 3.64 | F 3.53 | Q 3.91 | V 3.35 | N 3.78 | H 3.75
A21: G 4.63 | T 4.59 | C 4.1 | R 4.39
I2: W 4.79 | E 5.59 | Y 4.95 | T 4.88 | D 5.62 | C 3.34 | K 5.46 | V 2.78
